Legend:
Test in all cases: EMSA
TnsE E522K+D523N = molecular target: T1, TnsE E522K+D523N (Escherichia coli (transposon Tn7), UniProt P05845 1-538, E522K;D523N)
T1 sequence: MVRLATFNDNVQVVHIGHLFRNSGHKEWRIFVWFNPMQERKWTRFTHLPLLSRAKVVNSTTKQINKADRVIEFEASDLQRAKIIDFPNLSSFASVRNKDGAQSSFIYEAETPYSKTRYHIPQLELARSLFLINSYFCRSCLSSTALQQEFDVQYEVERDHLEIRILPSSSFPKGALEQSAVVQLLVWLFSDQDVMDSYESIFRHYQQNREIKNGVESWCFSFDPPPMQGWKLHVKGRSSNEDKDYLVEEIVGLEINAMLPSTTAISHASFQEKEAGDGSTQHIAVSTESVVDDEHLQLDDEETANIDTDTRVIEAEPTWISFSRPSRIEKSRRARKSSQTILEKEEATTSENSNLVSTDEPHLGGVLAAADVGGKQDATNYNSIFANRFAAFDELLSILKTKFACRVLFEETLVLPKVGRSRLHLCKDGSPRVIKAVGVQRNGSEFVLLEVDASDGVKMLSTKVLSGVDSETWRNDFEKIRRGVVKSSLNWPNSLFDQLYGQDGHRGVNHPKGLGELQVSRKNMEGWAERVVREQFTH

TnsE G483R = molecular target: T2, TnsE G483R (Escherichia coli (transposon Tn7), UniProt P05845 1-538, G483R)
T2 sequence: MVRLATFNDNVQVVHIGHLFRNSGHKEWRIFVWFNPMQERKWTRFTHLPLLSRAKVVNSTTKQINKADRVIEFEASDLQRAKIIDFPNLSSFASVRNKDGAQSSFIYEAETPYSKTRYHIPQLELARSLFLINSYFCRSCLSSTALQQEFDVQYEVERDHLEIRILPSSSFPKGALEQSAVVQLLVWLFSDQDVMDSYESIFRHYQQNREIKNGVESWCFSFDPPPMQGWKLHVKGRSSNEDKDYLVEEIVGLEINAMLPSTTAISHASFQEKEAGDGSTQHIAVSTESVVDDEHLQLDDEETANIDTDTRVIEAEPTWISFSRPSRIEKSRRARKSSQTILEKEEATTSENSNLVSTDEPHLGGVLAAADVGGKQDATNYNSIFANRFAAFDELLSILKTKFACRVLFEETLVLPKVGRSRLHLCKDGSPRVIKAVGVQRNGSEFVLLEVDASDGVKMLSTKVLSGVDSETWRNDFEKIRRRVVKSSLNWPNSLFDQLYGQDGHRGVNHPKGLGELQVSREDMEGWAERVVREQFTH

TnsE D523N = molecular target: T3, TnsE D523N (Escherichia coli (transposon Tn7), UniProt P05845 1-538, D523N)
T3 sequence: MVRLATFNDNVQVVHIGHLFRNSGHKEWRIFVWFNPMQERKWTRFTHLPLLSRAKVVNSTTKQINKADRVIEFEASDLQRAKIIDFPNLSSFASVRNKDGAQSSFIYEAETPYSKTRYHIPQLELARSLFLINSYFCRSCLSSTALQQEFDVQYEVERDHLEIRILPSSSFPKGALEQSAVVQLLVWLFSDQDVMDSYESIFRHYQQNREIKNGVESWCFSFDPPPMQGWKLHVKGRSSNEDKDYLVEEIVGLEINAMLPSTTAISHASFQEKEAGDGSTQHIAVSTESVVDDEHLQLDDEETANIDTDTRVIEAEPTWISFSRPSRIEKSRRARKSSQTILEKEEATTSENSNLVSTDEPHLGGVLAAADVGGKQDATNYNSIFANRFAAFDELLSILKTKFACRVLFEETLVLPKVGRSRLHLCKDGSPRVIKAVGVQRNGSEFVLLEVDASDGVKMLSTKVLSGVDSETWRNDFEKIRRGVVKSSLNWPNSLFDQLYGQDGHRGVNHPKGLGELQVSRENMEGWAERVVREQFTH

TnsE E516K = molecular target: T4, TnsE E516K (Escherichia coli (transposon Tn7), UniProt P05845 1-538, E516K)
T4 sequence: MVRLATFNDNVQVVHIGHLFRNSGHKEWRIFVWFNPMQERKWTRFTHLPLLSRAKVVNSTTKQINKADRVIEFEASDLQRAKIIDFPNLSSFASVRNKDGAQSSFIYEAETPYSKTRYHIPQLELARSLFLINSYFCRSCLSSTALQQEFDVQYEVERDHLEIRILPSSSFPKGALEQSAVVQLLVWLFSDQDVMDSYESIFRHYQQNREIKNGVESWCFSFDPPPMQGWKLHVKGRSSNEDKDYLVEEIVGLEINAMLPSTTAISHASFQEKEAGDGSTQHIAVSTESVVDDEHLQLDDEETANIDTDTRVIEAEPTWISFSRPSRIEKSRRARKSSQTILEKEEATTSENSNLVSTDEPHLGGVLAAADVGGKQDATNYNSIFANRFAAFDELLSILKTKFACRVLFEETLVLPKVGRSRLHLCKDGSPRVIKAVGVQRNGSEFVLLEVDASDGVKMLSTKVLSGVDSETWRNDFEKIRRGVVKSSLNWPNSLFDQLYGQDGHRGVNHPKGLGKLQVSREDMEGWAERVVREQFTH

TnsE A453V = molecular target: T5, TnsE A453V (Escherichia coli (transposon Tn7), UniProt P05845 1-538, A453V)
T5 sequence: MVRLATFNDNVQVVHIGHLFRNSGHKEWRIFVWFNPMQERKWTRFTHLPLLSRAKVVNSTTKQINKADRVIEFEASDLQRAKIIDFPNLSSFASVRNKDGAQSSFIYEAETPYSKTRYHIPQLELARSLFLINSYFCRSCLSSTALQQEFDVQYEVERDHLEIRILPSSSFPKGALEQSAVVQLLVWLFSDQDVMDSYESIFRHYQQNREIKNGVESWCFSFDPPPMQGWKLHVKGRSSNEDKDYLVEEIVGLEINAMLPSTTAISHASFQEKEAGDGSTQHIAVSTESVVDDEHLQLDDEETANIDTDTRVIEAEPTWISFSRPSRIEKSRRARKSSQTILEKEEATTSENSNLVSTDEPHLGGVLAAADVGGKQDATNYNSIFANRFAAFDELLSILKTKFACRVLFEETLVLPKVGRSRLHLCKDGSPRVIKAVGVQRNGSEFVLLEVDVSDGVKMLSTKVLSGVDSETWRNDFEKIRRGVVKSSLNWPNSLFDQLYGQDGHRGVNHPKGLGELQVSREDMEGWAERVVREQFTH

TnsE E522K = molecular target: T6, TnsE E522K (Escherichia coli (transposon Tn7), UniProt P05845 1-538, E522K)
T6 sequence: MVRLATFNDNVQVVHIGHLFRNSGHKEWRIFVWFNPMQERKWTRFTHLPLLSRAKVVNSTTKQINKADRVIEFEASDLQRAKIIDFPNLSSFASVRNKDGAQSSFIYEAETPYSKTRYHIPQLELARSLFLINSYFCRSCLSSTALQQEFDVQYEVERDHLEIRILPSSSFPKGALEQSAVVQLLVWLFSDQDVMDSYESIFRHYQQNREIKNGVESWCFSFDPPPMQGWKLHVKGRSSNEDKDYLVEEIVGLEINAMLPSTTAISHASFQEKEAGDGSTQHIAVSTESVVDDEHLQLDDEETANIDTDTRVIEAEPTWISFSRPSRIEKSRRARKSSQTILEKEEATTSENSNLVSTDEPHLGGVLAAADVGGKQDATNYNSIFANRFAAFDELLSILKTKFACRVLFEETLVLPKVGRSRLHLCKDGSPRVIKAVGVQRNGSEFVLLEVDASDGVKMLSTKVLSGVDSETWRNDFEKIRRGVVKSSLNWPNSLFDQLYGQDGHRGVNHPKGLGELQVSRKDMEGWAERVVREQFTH

TnsE G515R = molecular target: T7, TnsE G515R (Escherichia coli (transposon Tn7), UniProt P05845 1-538, G515R)
T7 sequence: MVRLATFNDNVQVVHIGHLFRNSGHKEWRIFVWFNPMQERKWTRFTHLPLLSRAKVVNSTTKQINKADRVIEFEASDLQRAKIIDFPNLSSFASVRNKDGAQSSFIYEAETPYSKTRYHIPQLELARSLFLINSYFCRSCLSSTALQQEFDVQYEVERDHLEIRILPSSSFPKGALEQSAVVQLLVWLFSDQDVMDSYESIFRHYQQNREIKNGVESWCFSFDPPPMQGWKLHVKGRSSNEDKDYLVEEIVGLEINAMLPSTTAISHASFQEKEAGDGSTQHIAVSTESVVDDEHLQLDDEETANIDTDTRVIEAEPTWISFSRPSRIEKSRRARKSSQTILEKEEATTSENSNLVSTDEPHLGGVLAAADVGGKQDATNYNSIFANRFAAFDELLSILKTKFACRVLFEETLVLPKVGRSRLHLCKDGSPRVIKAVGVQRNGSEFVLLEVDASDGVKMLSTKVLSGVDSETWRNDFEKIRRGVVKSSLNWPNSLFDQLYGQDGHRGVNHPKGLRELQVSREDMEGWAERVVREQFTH

TnsE wild-type = molecular target: T8, TnsE wild-type (Escherichia coli (transposon Tn7), UniProt P05845 1-538)
T8 sequence: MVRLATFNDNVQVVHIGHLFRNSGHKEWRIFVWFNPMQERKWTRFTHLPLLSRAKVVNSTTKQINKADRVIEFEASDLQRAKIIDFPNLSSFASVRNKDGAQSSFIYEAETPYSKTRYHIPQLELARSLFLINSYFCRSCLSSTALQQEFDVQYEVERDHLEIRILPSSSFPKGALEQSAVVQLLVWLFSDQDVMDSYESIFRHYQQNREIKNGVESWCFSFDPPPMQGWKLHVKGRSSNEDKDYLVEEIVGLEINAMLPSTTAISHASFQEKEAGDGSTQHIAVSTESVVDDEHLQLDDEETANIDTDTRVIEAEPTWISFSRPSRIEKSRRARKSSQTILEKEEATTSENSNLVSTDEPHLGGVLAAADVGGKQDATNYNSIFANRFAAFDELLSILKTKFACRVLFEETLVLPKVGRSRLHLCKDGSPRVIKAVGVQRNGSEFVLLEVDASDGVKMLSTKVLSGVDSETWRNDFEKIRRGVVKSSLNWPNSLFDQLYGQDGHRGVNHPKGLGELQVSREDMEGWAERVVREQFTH

Measured: binding result

B1: 3' recessed-end DNA substrate (mixed)
DNA 1: CCATTAGCAAGGCCGGAAACGTCACCAATGCAACGATCAGCCAACTAAACTAGGACATCTTTGCC
DNA 2: GGCAAAGATGTCCTAGTTTAGTTGGCTGAT
binds: TnsE E522K+D523N | TnsE G483R | TnsE D523N | TnsE E516K | TnsE A453V | TnsE E522K | TnsE G515R | TnsE wild-type
